Measured values taken from patent US20230340081A1 (Hoffmann-La Roche, published 2023).
Residue numbers refer to the chain shown, from its start.

B1: Bc1.229 (antibody, V domains shown)
VH: QVQLVESGGGVVQPGRSLRVSCAASGFTFSNYGMHWVRQAPGKGLEWLAVIWNDGSNKYYADSVKGRFIISRDNSKNTLYLQMNSLGAEDTAMYYCAREGLTSVTMLDSWGQGALVTVSS
VL: DIQMTQSPSSLSASVGDRVTITCRASQYISSFLNWYQQKPGKAPKLLIHVASSLQSGVPSRFSGSGSGTHFTLTISSLQPEDFATYYCQQSYSTPLFTFGPGTKVDIKR
B2: Bv4.105 (antibody, V domains shown)
VH: QVQLVESGGGLVQSGRSLRLSCSAFGFTFGDYPIMWVRLAPGKGLEWVGFIRSKAYGGTAEYAASVKGRFTTSRDDSRSTAYLQMNSLKTEDTAVYYCTREGGHSGFWSGFNKIPTFDYWGQGSLVTVSS
VL: DIQMTQSPSSLSASIGDRVSITCRASETIRTYLNWYQHKPGKAPQLLIYAASSVQSGVPSRFSGSGSGTDFTLTISNLQPEDFATYYCQQSYTSPWVTFGPGTKVDIKR
B3: Bc8.111 (antibody)
heavy: not shown
light: QSVLTQPHSVSESPGKTVTISCTRSSGSIASNYVQWYQQRPGSAPTTVIYEDNERPSGVPARFSGSIDSSSNSASLTISGLKTEDEADYYCQSYESSNWVFGGGTKLTVLGQPKAAPSVTLFPPSSEELQANKATLVCLISDFYPGAVTVAWKADSSPVKAGVETTTPSKQSNNKYAASSYLSLTPEQWKSHRSYSCQVTHEGSTVEKTVAPTECS
B4: Bc1.263 (antibody, human IgG1, kappa, V domains shown)
VH: QVQLVQSGAEVKKPGSSVKVSCRASGGTFSNYGVNWVRQAPGQGLEWMGKIIPILGIVNYAQKFQGRVTITADKSTSTAYMELSSLRSEDTAVYYCARDRGGKPLYSYGYGLDYWGQGTLVTVSS
VL: EIVLTQSPATLSLSPGERATLSCRASLSVSTYLAWYQKKPGQPPRLLIYDASKRATGIPARFSGSGSGTDFTLTISSLEPEDFAVYYCQQRSTTFGQGTKVEIKR
B5: Bv4.115 (antibody)
heavy: not shown
light: DIQMTQSPSTLSASVGDRVTITCRASQSINTWLAWYQQKPGKAPKLLISKASSLESGVPSRFSGSGSGTEFTLSISSLQPDDFATYYCQQYNTFSFGQGTKLEIKRTVAAPSVFIFPPSDEQLKSGTASVVCLLNNFYPREAKVQWKVDNALQSGNSQESVTEQDSKDSTYSLSSTLTLSKADYEKHKVYACEVTHQGLSSPVTKSFNRGEC

molecular target: HBV genotype D viruses (produced in HepG2.2.15 cell culture supernatant) (hepatitis B virus genotype D); experiment: cell-based or functional assay

Binder	HBV-gD in vitro neutralization (IC50 µg/ml)
B1	2.53e-05 µg/mL
B2	2.95e-06 µg/mL
B3	2.51e-06 µg/mL
B4	3.96e-06 µg/mL
B5	3.87e-06 µg/mL

molecular target: T1, Adw S-HBs protein (adw HBsAg particles, GenHevac (Adw)) (hepatitis B virus, adw subtype); experiment: ELISA, AUC of binding curve; parameters: unit not given beside the values
T1 construct: also called GenHevac-B

Binder	AUC (serotype binding)
B1	35
B2	8
B3	35
B5	36

molecular target: T2, Ayw S-HBs protein (ayw HBsAg particles, Engerix-B (Ayw)) (hepatitis B virus, ayw subtype); experiment: ELISA, AUC of binding curve; parameters: unit not given beside the values

Binder	AUC (serotype binding)
B1	34
B2	33
B3	36
B5	37

molecular target: T1, Adw S-HBs protein (adw HBsAg particles, …); experiment: ELISA on recombinant HBV vaccine particles

Binder	EC50
B1	26.1 ng/mL
B2	8920 ng/mL
B3	8.9 ng/mL
B5	27.7 ng/mL

molecular target: T2, Ayw S-HBs protein (ayw HBsAg particles, …); experiment: ELISA on recombinant HBV vaccine particles

Binder	EC50
B1	12.3 ng/mL
B2	4.8 ng/mL
B3	9.5 ng/mL
B5	5.1 ng/mL

molecular target: T3, consensus S-HBs protein of HBV genotype A (ConsHBAg_A) (hepatitis B virus genotype A (consensus), UniProt P03141 175-400); experiment: flow cytometry, S-HBs-transfected 293-F cells
T3 construct: also called genotype A S-HBs

Binder	% of bound S-HBs-expressing cells
B1	75%
B2	21%
B3	65%
B5	88%

molecular target: T4, consensus S-HBs protein of HBV genotype B (ConsHBAg_B) (hepatitis B virus genotype B (consensus), UniProt Q9PWW3 175-400); experiment: flow cytometry, S-HBs-transfected 293-F cells
T4 construct: also called genotype B S-HBs

Binder	% of bound S-HBs-expressing cells
B1	68%
B3	64%
B5	83%

molecular target: T5, consensus S-HBs protein of HBV genotype C (ConsHBAg_C) (hepatitis B virus genotype C (consensus), UniProt P03140 175-400); experiment: flow cytometry, S-HBs-transfected 293-F cells
T5 construct: also called genotype C S-HBs

Binder	% of bound S-HBs-expressing cells
B1	76%
B2	1%
B3	72%
B5	82%

molecular target: T6, consensus S-HBs protein of HBV genotype D (ConsHBAg_D) (hepatitis B virus genotype D (consensus), UniProt P03138 164-389); experiment: flow cytometry, S-HBs-transfected 293-F cells
T6 construct: also called genotype D S-HBs; ConsD S-HBs

Binder	% of bound S-HBs-expressing cells
B1	73%
B3	71%
B5	89%

Molecular target: T7, consensus S-HBs protein of HBV genotype E (ConsHBAg_E) (hepatitis B virus genotype E (consensus), UniProt Q69603 174-399)
T7 construct: also called genotype E S-HBs
T7 chain: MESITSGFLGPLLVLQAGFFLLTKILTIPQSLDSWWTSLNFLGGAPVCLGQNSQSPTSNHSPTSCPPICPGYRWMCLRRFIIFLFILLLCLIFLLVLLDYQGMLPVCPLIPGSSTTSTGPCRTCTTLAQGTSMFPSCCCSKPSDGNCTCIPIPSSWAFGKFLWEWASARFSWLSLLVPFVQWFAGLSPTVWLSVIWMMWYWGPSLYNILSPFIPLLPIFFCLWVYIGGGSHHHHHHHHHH
Experiment: flow cytometry, S-HBs-transfected 293-F cells

Binder	% of bound S-HBs-expressing cells
B1	71%
B3	68%
B5	85%

molecular target: T8, consensus S-HBs protein of HBV genotype F (ConsHBAg_F) (hepatitis B virus genotype F (consensus), UniProt Q05496 175-400); experiment: flow cytometry, S-HBs-transfected 293-F cells
T8 construct: also called genotype F S-HBs
T8 sequence (Q05496 175-400, tags left off): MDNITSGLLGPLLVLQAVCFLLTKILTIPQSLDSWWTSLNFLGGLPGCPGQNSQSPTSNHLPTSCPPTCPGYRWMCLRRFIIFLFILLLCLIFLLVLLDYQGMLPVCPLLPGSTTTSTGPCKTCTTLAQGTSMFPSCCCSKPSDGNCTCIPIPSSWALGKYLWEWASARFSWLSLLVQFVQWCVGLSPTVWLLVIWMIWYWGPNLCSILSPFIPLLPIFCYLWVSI

Binder	% of bound S-HBs-expressing cells
B1	68%
B2	46%
B3	66%
B5	73%

molecular target: T9, consensus S-HBs protein of HBV genotype G (ConsHBAg_G) (hepatitis B virus genotype G (consensus), UniProt Q9IBI3 174-399); experiment: flow cytometry, S-HBs-transfected 293-F cells
T9 construct: also called genotype G S-HBs

Binder	% of bound S-HBs-expressing cells
B1	79%
B3	60%
B5	83%

molecular target: T10, consensus S-HBs protein of HBV genotype H (ConsHBAg_H) (hepatitis B virus genotype H (consensus), UniProt Q8JMZ6 175-400); experiment: flow cytometry, S-HBs-transfected 293-F cells
T10 construct: also called genotype H S-HBs
T10 sequence (Q8JMZ6 175-400, tags left off): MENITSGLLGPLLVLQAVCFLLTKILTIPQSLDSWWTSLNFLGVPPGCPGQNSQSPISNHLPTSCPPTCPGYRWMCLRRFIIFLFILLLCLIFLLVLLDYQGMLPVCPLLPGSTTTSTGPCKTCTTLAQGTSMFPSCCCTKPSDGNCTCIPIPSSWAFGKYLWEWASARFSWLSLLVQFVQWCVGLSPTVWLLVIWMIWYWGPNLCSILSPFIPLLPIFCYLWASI

Binder	% of bound S-HBs-expressing cells
B1	74%
B2	55%
B3	67%
B5	77%

Molecular target: T11, consensus S-HBs protein of HBV genotype I (ConsHBAg_I) (hepatitis B virus genotype I (consensus), UniProt P31873 175-400)
T11 construct: also called genotype I S-HBs
T11 chain: T7 chain with S3N, R122K, L127P, T131N, F134Y, S140T, S143T, G159A, F161Y, A184V
Experiment: flow cytometry, S-HBs-transfected 293-F cells

Binder	% of bound S-HBs-expressing cells
B1	64%
B3	52%
B5	71%

molecular target: genotype D S-HBs mutant protein T126A (hepatitis B virus genotype D, UniProt P03138 164-389); experiment: flow cytometry, S-HBs-transfected 293-F cells

Binder	% of bound S-HBs-expressing cells
B1	70%
B3	55%
B5	71%

molecular target: genotype D S-HBs mutant protein M133T (hepatitis B virus genotype D, UniProt P03138 164-389); experiment: flow cytometry, S-HBs-transfected 293-F cells

Binder	% of bound S-HBs-expressing cells
B1	62%
B3	54%
B5	67%

molecular target: genotype D S-HBs mutant protein Y134V (hepatitis B virus genotype D, UniProt P03138 164-389); experiment: flow cytometry, S-HBs-transfected 293-F cells

Binder	% of bound S-HBs-expressing cells
B1	67%
B3	56%
B5	66%

molecular target: genotype D S-HBs mutant protein G145R (hepatitis B virus genotype D, UniProt P03138 164-389); experiment: flow cytometry, S-HBs-transfected 293-F cells

Binder	% of bound S-HBs-expressing cells
B3	0%
B5	60%

molecular target: genotype D S-HBs mutant protein N146S (hepatitis B virus genotype D, UniProt P03138 164-389); experiment: flow cytometry, S-HBs-transfected 293-F cells

Binder	% of bound S-HBs-expressing cells
B1	56%
B3	55%
B5	67%
